B1: SAT2 (parent)
chain: IIKKVAEVALDKGCSQFRLAVLDW
B2: GFOD1 (parent)
chain: SDDFCTFQMVLEGGVCCTVTLNFN
B3: CPN1 (parent)
chain: RGVRRTASTPTPDDKLFQKLAKVY

Variants of: B1
Assay: protein stability index of a GFP-peptide fusion (GPS, HEK-293T) (PSI 1-6); higher = more stable
Settings: c terminus: a fixed tail appended
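Further: lentivirally expressed fusions sorted by FACS into six bins by GFP to DsRed ratio, PSI derived from sequencing read proportions per bin multiplied by bin number.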

Variant | protein stability index
A9F | 2.31
A9I | 2.87
A9M | 2.39
A9N | 2.8
S15Q | 1.56
S15D | 2.74
S15L | 3.77
S15Y | 3.27
S15W | 1.79
K4W | 3.9
K4Q | 2.45
K4Y | 2.95
K4E | 3.05
K4G | 1.54
K4P | 1.31
L10H | 1.99
L10T | 3.02
L10S | 1.05
L10D | 1.75
L10N | 1.17
L10C | 3.52
L10M | 4.14
K3R | 2.37

Variant | protein stability index
K3P | 1.86
F17S | 1.03
F17T | 3.18
F17K | 2.69
F17D | 3.24
F17P | 3.25
F17M | 4.35
D23F | 1.82
D23C | 3.04
D23V | 2.16
D23M | 2.98
D23I | 3.25
D23Y | 2.22
D23H | 3.77
R18Y | 3.6
R18L | 2.39
R18S | 3.36
R18P | 2.17
R18M | 1.8
E7P | 2.75
E7N | 2.35
E7L | 2.75
E7T | 2.79

Variant | protein stability index
E7Y | 2.64
E7I | 1.52
E7M | 1.78
A20P | 2.01
A20T | 2.13
L19N | 2.69
L19H | 3.62
L19A | 1.61
L19R | 2.5
L19V | 3.77
L19Y | 2.61
A6Q | 1.15
A6N | 2.71
A6E | 2.19
L22W | 4.19
L22F | 1.86
L22P | 2.5
L22K | 2
L22D | 1.23
L22T | 3.66
I1T | 1.86
I1N | 1.38
I1C | 2.94

Variant | protein stability index
I1D | 2.44
I1H | 2.14
I1S | 2.28
I1K | 2.02
I1Q | 2.23
V5Y | 1.04
V5N | 3.44
V5F | 3.49
V5G | 3.27
V5A | 3.31
V5D | 1.52
K12M | 2.73
K12W | 4.21
K12G | 3.51
K12C | 3.59
V21T | 1.78
V21W | 3.21
V21G | 3.79
V21Q | 1.04
V21K | 1.87
V21N | 1.51
V21L | 4.52
V21H | 2.52

Variant | protein stability index
D11P | 4.36
D11Q | 2.15
D11L | 1.19
D11Y | 2.01
D11F | 3.5
G13D | 2.79
G13C | 2.45
G13I | 2.37
C14Y | 2.62
C14N | 4.56
C14S | 2.97
C14D | 2.61
W24H | 1.04
W24R | 1.28
W24N | 2.22
W24M | 2.37
W24D | 1.37
W24E | 2.23
W24P | 1.65
W24S | 3.1
W24T | 2.24
Q16E | 3.74
Q16W | 1.51

Variant | protein stability index
Q16F | 4.68
I2N | 2.16
I2S | 1.98
I2W | 1.81
I2P | 1.03
I2H | 1.33
I2F | 3.61
I2K | 2.16
I2D | 1.74
I2M | 1.32
I2G | 1.48
V8C | 1.99
V8K | 1.6
V8M | 2.59
V8E | 1.2
V8W | 2.76
V8Q | 2.94
V8H | 2.58
V8N | 2.01
V8P | 1.7

Variants of: B2
Assay: as above
Settings: c terminus: a fixed tail appended

Variant | protein stability index
N24L | 3.23
N24W | 3.94
N24Q | 1.99
N24S | 2.05
N24C | 2.91
N24A | 3.67
N24F | 3.55
N24P | 3
N24T | 2.47
N24R | 3.43
F23S | 2.62
F23P | 1.56
F23H | 2.43
F23E | 3.16
F23L | 2.8
F23I | 3.75
F23G | 2.44
F23N | 4.1
F23Q | 1.24
F23Y | 3.05

Variants of: B3
Assay: as above
Settings: c terminus: a fixed tail appended

Variant | protein stability index
S8N | 2.1
S8I | 1.57
S8W | 3.14
S8Q | 2.18
S8G | 1.1
S8F | 1.7
S8K | 2.85
S8D | 2.19
S8L | 1.76
S8H | 1.82
S8E | 1.63
S8Y | 3
S8M | 1.44
S8T | 1.6
S8A | 2
R5P | 2.79
R5H | 2.35
R5I | 2.33
R5D | 2.69
R5E | 2.57
R5Q | 2.23
R5W | 2.2
R5M | 2.51
R5S | 2.23
R5L | 2.07
R5F | 1.57

Variant | protein stability index
R5G | 1.7
R5N | 2.3
R5Y | 1.89
R5V | 1.87
R5T | 2.94
R5K | 1.85
R5C | 3.3
R5A | 3.41
T9H | 2.27
T9K | 2.57
T9M | 1.45
T9C | 2.57
T9W | 2.02
T9P | 3
T9Y | 1.52
T9R | 1.3
T9Q | 1.84
T9G | 3.11
T9N | 1.54
T9A | 2.07
T9S | 1.94
T9L | 1.27
T9I | 1.68
T9F | 2.3
T9V | 1.97
A7P | 1.85

Variant | protein stability index
A7L | 1.17
A7C | 1.57
A7T | 2.07
A7Q | 2.37
A7Y | 2
A7G | 2.38
A7S | 1.97
A7F | 1.25
A7R | 1.71
A7D | 2.05
A7H | 1.41
A7M | 1.62
A7E | 2.05
A7V | 2.75
A7W | 2.59
A7N | 2.54
G2C | 2.22
G2N | 3.13
G2H | 1.87
G2I | 1.76
G2M | 1.79
G2L | 1.24
G2P | 2.19
G2V | 2.84
G2S | 3.13
G2E | 2.35

Variant | protein stability index
G2K | 2.38
G2A | 2.52
G2Y | 1.64
G2F | 1.51
G2D | 2.26
G2Q | 1.94
G2R | 1.66
G2T | 2.23
R4H | 2.17
R4A | 2.01
R4V | 2.35
R4N | 1.95
R4W | 2.02
R4G | 2.57
R4I | 2.56
R4Q | 1.76
R4S | 2.76
R4E | 2.16
R4K | 1.51
R4L | 1.92
R4C | 3.17
R4M | 2.26
R4D | 3.69
R4Y | 1.54
R1L | 2.88
R1W | 1.02

Variant | protein stability index
R1H | 2.58
R1F | 1.92
R1C | 1.4
R1V | 2.34
R1T | 1.49
R1Q | 2.42
R1S | 2.85
R1A | 1.4
R1P | 2.27
R1N | 2.42
R1D | 2.27
R1I | 1.42
R1M | 1.93
R1K | 1.89
R1Y | 2.93
P10G | 2.27
P10L | 1.02
P10I | 1.48
P10F | 2.19
P10M | 1.89
P10S | 2.09
P10W | 1.36
P10T | 1.75
P10R | 1.74
P10V | 1.79
P10Q | 1.78

Variant | protein stability index
P10N | 2.06
P10C | 2.07
P10Y | 1.79
P10D | 2.49
P10H | 1.34
P10A | 2.13
P10E | 2.81
P10K | 1.8
T6G | 1.74
T6H | 1.49
T6D | 2.93
T6S | 1.97
T6F | 2.07
T6P | 1.23
T6L | 1.73
T6M | 2.02
T6N | 1.56
T6Q | 2
T6R | 1.99
T6I | 1.67
T6W | 2.02
T6E | 2.12
T6V | 2.56
T6K | 1.61
T6C | 1.52
T6Y | 1.59

Variant | protein stability index
V3K | 1.62
V3F | 2.24
V3W | 2.66
V3I | 2.48
V3R | 2.84
V3L | 2.24
V3S | 1.93
V3T | 2.89
V3G | 2.12
V3N | 2.2
V3E | 2.24
V3D | 2.58
V3P | 2.35
V3Y | 2.27
V3Q | 1.88
V3H | 2.13
V3M | 1.84
V3C | 2
V3A | 2.16
T11C | 1.83
T11A | 2.29
T11E | 2.1
T11D | 2.26
